Test results reported in patent US20240228595A1.

Target: SARS-COV-2 Omicron BA.1.1 spike on HIV-1 based pseudovirus (SARS-CoV-2 Omicron BA.1.1) (UniProt P0DTC2)
Assay: cell-based or functional assay

Substance: S309 (Sotrovimab) (antibody)
- pseudovirus neutralization, IC50: 0.533 µg/mL
